Molecular target: the molecule itself
Assay: crystal structure; sitting drop, 11 mg/ml protein with 1 mM PLP, 12% w/v PEG 20000, 0.1 M MES pH 6.5, 289 K; SAD, 2.10 Å, space group I222; quaternary assembly calculated by PISA

B1: CalE6, PLP-dependent methionine γ-lyase from Micromonospora echinospora (D7G variant, selenomethionine labeled) (enzyme, UniProt Q8KNG3 1-381, looked up)
chain: MSGMRFGTRLVHGGRRPSAGTGDVVPPIHVSTTYERRAQDEPRYFYGRGENPTREELEECLAGLERAPFATVFSSGQAAAATLLSLVRPGQCVVSTDDVYAGTDGLFDLAARQGVRVRYADLTTPEGIAAALAEPDLALVWIETPTNPLLTVVDVAEVSRRAHERGARVVVDNTFASPVLQQPLALGADVSLYSTTKSIAGHADVLGGALVYRDADLHAAVRAYRTTAGNVPGALDCFLVRRGLHTLSLRVHRQVATARVLVERLRASPVVGAVHYPGLPEHPQHAVVKAQMSAPGAIVSFDYLGGPAERLLDRFTLFTCGVSLGGVHSLVECPALMTHRPLSAEARARRGIGESLIRLSVGIEDPQDLAEDLSRALAGGT
modifications: selenomethionine in place of methionine; Lys 197 bound covalently to PLP (Schiff base, residue LLP 197)
notes: The printed fusion scheme (ENLYFQ/SNA-TARGET) leaves SNA before the protein after TEV cleavage; The forward primer begins the target with GTG (AGC GGT ATG CGC TTC GAC follow), so the first residue behind SNA may be Val, not Met; Crystallised with 1 mM PLP; also called CalE6-MES complex; CalE6 holoenzyme; source: E. coli BL21(DE3), selenomethionine labeled, purified (Ni-NTA, TEV cleavage, …)
  stoichiometry N: 4

— paper PMC4851618, “Structural dynamics of a methionine γ-lyase for calicheamicin biosynthesis: Rotation of the conserved tyrosine stacking with pyridoxal phosphate” (Structural Dynamics, 2016)
